Laboratory results from a protein production outcome set (Wang et al. 2014).

Assay: label from the status in PepcDB records

Row | Sequence | protein production
1 | MERKKITFDSFIRGSICCALIVGLLILFKRLSGVLLPFFVAWLIAYMIYPLVKFFQYKLRFKSRIISIFCALFSITIVGISLFYLLVPPMLAEMGRMNDLLVTYLTNGAYSSGTVPPTLSEFIHKHIDLQALNRILSEENIMNTIKETVPKLWALVAESINILFSVFASFIILLYVVFILLDYESIAEGWLHLLPGKYRTFASNLVNDIQDGMNRYFRGQAFVAFCVGILFSIGFLIIDFPMAIALGLFIGALNMVPYLQIIGFLPTIVLAILKAADTGENFWVILAGALIVFIVVQAIQDGFLVPRIMGKITGLNPAIILLSLSIWGSLLGMLGMIIALPLTTLMLSYYQRFIINKEKIKYDRHEVTDNQSAEENTKK | failed
2 | MERLTSPPRLMIVSDLDETMVDHHKDPENLALLRFNSLWEDAYRHDSLLVFSTGRAQTMYKKLRKEKPLLTPDVIITSVGTEIAYGNSMVPDDNWVEILNKKWDRGIVQEETSKFPELTLQGETEQRPHKLSFNIDKSKVKAVTKELSPRLEKRGVDVKFIFSGGNAFDVLAKGGGKGQALAYLLKKLKTEGKLPINTLACGDSGNDTELFTIPNVYGVMVSNAQEELLEWYAENAKDNANIIHASERCAGGITQAIGHFKLGPNLSPRDVSDFLECKADNVNPGHEVVKFFLFYERWRRGEVENCTTYTSSLKASCHPSGVFVHPSGAEKSLRDTIDELGKYYGDKKGKKFRVWTDQVLATDTTPGTWIVKLDKWEQTGDERKCCTTTVKFTSKEGEGFVWEHVQQIWSEETEIKDDSNWII | failed
3 | MERNVTLDFVRGVAILGILLLNISAFGLPKAAYLNPAWYDAITPQDAWTWAFLDLIGQVKFLTLFALLFGAGLQMLLPRGRRWIQSRLTLLVLLGFIHGLLFWDGDILLAYGLVGLGVLLLLGLISDSQTSRAWTPDASAILYEKYWKLHGGVEAISNRADGVGNSLLALGAQYGWQLAGMMLIGAALMRSGWLKGQFSLRHYRRTGFVLVAIGVTINLPAIALQWQLDWAYRWCAFLLQMPRELSAPFQAIGYASLFYGFWPQLSRFKLVLAIACVGRMALTNYLLQTLICTTLFYHLGLFMHFDRLELLAFVIPVWLANILFSVIWLRYFRQGPVEWLWRQLTLRAAGPAISKTSR | failed
4 | MERPLESYKKEAAHAAIAYVQDGMVVGLGTGSTARYAVLELARRLREGELKGVVGVPTSRATEELAKREGIPLVDLPPEGVDLAIDGADEIAPGLALIKGMGGALLREKIVERVAKEFIVIADHTKKVPVLGRGPVPVEIVPFGYRATLKAIADLGGEPELRMDGDEFYFTDGGHLIADCRFGPIGDPLGLHRALLEIPGVVETGLFVGMATRALVAGPFGVEELLP | not failed
5 | MERQDDPDAIQRLLVPTDLSASALRAFRHAVALARLYDAAIDVLHVIESVPYVALTPTDRLSLGATTLLERRGRRRLRAFLQEGEAAGVQVQSHIMRGAAADQISRFANQGDVDLMVLSAHGSDAEEGPLGPVGTRVLGRVTRPLFLVRASGPSLLGPPDDAA | failed
6 | MERSEEEIENLWKLQSEVKQRSESVKSIITELEIERGTLKVRALKLKEDSDVLTTWVEMNYLKLTSMDMGRIEEMFEIESEVEGLAGDDAIEDVLRVLEEAAERGELEIGSYLKQVRVLAREQFFLKHLSSFKTQNFHI | failed
7 | MERVQRLRLTFGKTGEMTLLSHLDLLRLFERAVRRAHLPIAFSGGFHPSPRISTASALPLGVTSYGEIVDLEFYREVDAQTVLEQLRQQLPQEIPLYGCEVVPLSEPAASQALRAATYELLIRTPEPLERETWEQWLETLRATPEILYELTTKSGKTLEHHHHHH | failed
8 | MESEKKIAHEIGGVKNDALRFGLHGVKSNIIGSHPLESSYESEKKSKEALKRTVIAHAYGTALPLKMDMDRQILSRFQRPPGPIPSSMLGLEVYTGAVDDFGFEDYLNDPRDSETFKPVDFHHGMEVRLGISKGPIYPSFM | failed
9 | MESFNTFVRQYNDQHAEAIAKGELEALAESSSAFIEKASGIKSRFVMNKEGILDPQRMVPYLPERSNDEWSILCEMAVAAAREALQRAGRSAADIDGVIVACSNLQRAYPAIAVEVQAALGIQGYGYDMNVACSSATFGIQAATTAIQTGQARAILMVNPEICTGHLNFRDRDSHFIFGDACTAVIVERADLAVSKHQFDIVSTRLLTQFSNNIRNNFGFLNRADESGIGKRDKLFVQEGRKVFKDVCPMVAELIGEHLAANEIQVAEVKRFWLHQANLNMNLLITRKLLGRDAEAHEAPVILDSYANTSSAGSVIALHKHQDDLPSGAIGVLSSFGAGYSIGSVILRKH | failed
10 | MESGKREQVELMFNNISPKYDLLNRVLSLGIDKIWRKQALNLLKQDKPAHILDVATGTADLAIEAATRLKPTSVVGIDIAEDMLQIGRGKIAKKNLDKIIRLEKGDSEKINFPDNTFDAVIVSFGVRNFEHLEIGLAEIHRVLKPAGSIMVLEFSKPQNAPFKQVYQFYFKNILPTVGKLISKDSAAYTYLPDSVNAFPDGKAFCSILEKTGFTIKHYKPYTFGVCTAYVGKLEHHHHHH | failed
11 | MESSFSFGVILAVLASLIIATNTLVAVAVLLLIHKNDGVSLCFTLNLAVADTLIGVAISGLLTDQLSSPSRPTQKTLCSLRMAFVTSSAAASVLTVMLITFDRYLAIKQPFRYLKIMSGFVAGACIAGLWLVSYLIGFLPLGIPMFQQTAYKGQCSFFAVFHPHFVLTLSCVGFFPAMLLFVFFYCDMLKIASMHSQQIRKMEHAGAMAGGYRSPRTPSDFKALRTVSVLIGSFALSWTPFLITGIVQVACQECHLYLVLERYLWLLGVGNSLLNPLIYAYWQKEVRLQLYHMALGVKKVLTSFLLFLSARNCGPERPRESSCHIVTISSSEFDG | failed
12 | MESWLFLLLIALIAFVAKNQSLLIASVVVLALKALPNSAKIMSWLSDKGINLGVTIISITILVPIATGQIGLKDLIQSFKTPMGWLGILCGILVAVLSSKGVGLINQSPEITVALVFGTILGVVFLKGIAAGPIIASGMMYVIITTFQAFQH | failed
13 | MESYSQRQDHELQALEAIYGSDFQDLRPDARGRVREPPEINLVLYPQGLAGEEVYVQVELRVKCPPTYPDVVPEIDLKNAKGLSNESVNLLKSHLEELAKKQCGEVMIFELAHHVQSFLSEHNK | not failed
14 | METDPDYSMVLLTENFPPYNMAINGKNFAQEDNIDGIAVDIVREMFKRAGIKYSLTLRFPWDRIYKLALEKPGYGVFVTARLAEREDKFKWVGPIGPDDWVLLAKGDSPITLGSLDEAKKYRIGAYKGDAIAEFLGKNGFEADLEHHHHHH | failed
15 | METKGEPYSEPCEFFNSILTGSVSRKMRLPRMGIRNFIGTSRLHFAKRAFHAQAAVDEDSRYGALLSIKEYPPFTGPGMLDGLLQVNHEFILTQSFTLADKPIAQERITRLQRQIRASDEAGTSVESDINFALDSMLNQEAVFGFHHFSLLCISRDLEGLSRCVSELGACLTDMNINWLREDLNLEAAFWAQLPGNHSYIARKAMLSSSNFSGLSSMHNFASGQAERTHWGLPITILETTSQTPYWFNFHRRDIGHFTVTGPTGSGKTVGLSFLLAQAMRVSPTPRAVFFDKDRGAEIFVRAIGGSYEILSPGTPTGFNPLQLENTGPNREFLQRLLKAMLGGRDRRDFTQEDEDIIERAVVRLMEEPAQQRNLTNLGNLLMGRARADANDLYSRLRPWTEGEKAWLFNAPHDVLSFSGRTVFGFDMTSILGNEELRTPALMYLYHRLDELLDGNPVMFFMDEGWQLLLDETFSAFIVDKMKTIRKLNGIVGFGTQSAADIAKSKVSHTLIEQSSTNIHFPNPRADEESYIKRFGLTVKEYNFIKNTPPEKRTFLIKHGNDSVIARLDLSSMPDLVKVLSGRKETIEECAALREQYGDEPENWLAKFCGWENAELEHHHHHH | not failed
